The source of these data is patent US20240067748A1 (NONA BIOSCIENCES SUZHOU, published 2024).

By EC50 is commonly meant the concentration at which the effect is half-maximal. What is called Kd is a measure of binding affinity in units of concentration. What is called koff is a measure of how fast the partners let go of each other. As a reminder, the kon is the rate constant with which the complex forms.

Residue numbers refer to the chain shown, from its start. A value given as a limit tells only on which side of the number the result lay.

For experiment [1], the target named is T1, human Trop2 on cells (human, UniProt P09758 27-323).
T1 construct: whole, on cells; also called hTrop2; 293T-human Trop2 cells
T1 sequence (looked up): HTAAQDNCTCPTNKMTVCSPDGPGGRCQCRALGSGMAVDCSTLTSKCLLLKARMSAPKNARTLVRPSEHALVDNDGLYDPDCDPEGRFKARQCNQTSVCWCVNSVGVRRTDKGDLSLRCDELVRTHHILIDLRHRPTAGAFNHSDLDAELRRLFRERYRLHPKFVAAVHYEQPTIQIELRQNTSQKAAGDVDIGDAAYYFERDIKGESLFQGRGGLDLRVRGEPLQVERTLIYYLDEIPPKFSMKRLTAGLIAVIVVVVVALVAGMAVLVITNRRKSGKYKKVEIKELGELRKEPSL
Kind of experiment: flow cytometry on 293T-human Trop2 cells. The method, then: The cell density was determined, and the cells were resuspended to 1×10⁶ cells/mL in PBS. 100 μL of cell suspension was taken from each well and added to a 96 well V-bottom plate. The 96-well V-bottom plate was centrifuged at 1000 rpm for 5 min and washed once with PBS+0.5% BSA (VWR, #0332-100G). […] After 1 h, the cells were washed twice with PBS+0.5% BSA. The cells were incubated with 100 μL of Alexa Fluor 488 goat anti-human IgG (Life technologies, 1:1000, #A-11013) at 4° C. for 1 h in the dark, and washed twice with PBS+0.5% BSA. The cells were resuspended in 200 μL of PBS+0.5% BSA. The fluorescence intensity of the cells was analyzed using a FACS verse flow cytometer. All procedures were performed on ice.
In general terms: In flow cytometry, cells or beads pass a laser one at a time.

For experiment [2], the target named is T2, human TROP2 protein (Sino Biological, #10428-H08H) (human, UniProt P09758 27-274).
T2 construct: bought protein; also called human Trop2 protein antigen (His tag); not shown: His tag
T2 sequence (looked up): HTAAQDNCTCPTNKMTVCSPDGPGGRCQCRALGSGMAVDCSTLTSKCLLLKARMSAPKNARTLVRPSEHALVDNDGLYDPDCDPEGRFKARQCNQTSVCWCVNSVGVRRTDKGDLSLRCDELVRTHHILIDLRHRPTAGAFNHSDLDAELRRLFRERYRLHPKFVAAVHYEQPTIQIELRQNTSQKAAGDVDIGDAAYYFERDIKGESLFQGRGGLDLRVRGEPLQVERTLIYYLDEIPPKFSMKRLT
Put plainly: BLI, Octet RED96, AHC sensor. The method, then:
(§1) Specifically, a human TROP2 protein (Sino Biological, #10428-H08H) or a monkey Trop2 protein (Sino Biological, #90893-C08H) was diluted to 200 nM with a PBS buffer (pH 7.4) containing 0.1% (w/w) BSA and 0.02% (v/v) tween 20, and incubated with the AHC sensor respectively. 40 nM Trop2 antibody was incubated at 30° C. for 3 min with the AHC sensor loaded with the human Trop2 protein or monkey Trop2 protein respectively. The reaction mixture was incubated at 30° C. for another 5 min in a PBS buffer (pH 7.4) containing 0.1% (v/w) BSA and 0.02% (v/v) Tween 20. The association and dissociation signals between the Trop2 antibody and the human Trop2 protein or monkey Trop2 protein were recorded by Octet Red 96 in real time. The affinity and the association and dissociation constants were determined by Octet using software.

Experiment [3] deals with T3, monkey Trop2 protein (Sino Biological, #90893-C08H) (monkey, UniProt A0A2K5UE71 27-274).
T3 construct: bought protein; also called monkey Trop2 protein antigen (His tag)
T3 sequence: T2 sequence (looked up) with M36V, K46E, S67N, I204V
Put plainly: BLI, Octet RED96, AHC sensor. The method, then: as §1
On the technique in general: In BLI a coated tip is dipped into the sample, and binding shifts an interference pattern.

Experiment [4] concerns the target T3, monkey Trop2 protein (Sino Biological, …). Put plainly: BLI, Octet RED96; ratio against KD for human Trop2 protein. The procedure:
as §1

B1: PR001132 (antibody, human IgG1, kappa, V domains shown)
VH: QVELVESGGGVVQPGRSLRLSCGASGFTFSSYNMYWVRQAPGKGLEWVAGIWDDGNNKYYANSVKGRFTISRDNSKNTLYLQMNSLRTEDTALYYCAKDGWGSYGEYFQHWGQGTLVTVSS
VL: DIQMTQSPSSLSASVGERVTITCRASQNINSYLSWYQQKPGKAPKLLIYAASSLQNGVPSRFSGSGSGTDFTLTISSLQPEDFATYYCQQSFSTPPITFGQGTRLEIKR
notes: fully human IgG1/kappa; also called antibody No. (4)
For B1, in experiment [1], the midpoint of the response, the EC50, lay at 0.441 nM; the “Maximum (MFI)” value amounted to 6920 MFI; the Top % worked out at 107%. Moreover, in experiment [2], the Kd was less than 0.001 nM, the Response was found to be 0.417, the “fold lower KD than the reference antibody Tab (hRS7)” value is approximately 10 fold and the koff was less than 1e-07 s⁻¹. In experiment [2], this molecule came in with an on-rate (kon) of 121000 M⁻¹ s⁻¹. In experiment [3], this molecule had a Kd of 0.164 nM, a Response of 0.418, a koff of 1.43e-05 s⁻¹ and a kon of 86900 M⁻¹ s⁻¹.

B2: PR001138 (antibody, human IgG1, kappa, V domains shown)
VH: QVQLQESGPRLVKPSETLSLTCAVSGYSISSGYYWGWIRQSPGMGLEWIAYIYHDGSTYCNPSLKSRVTMSVDTSKNQFSLKLRSVTAADTAVYYCARDGAAAPFDYWGQGTLVTVSS
VL: DIQMTQSPSTLSASVGDRVTITCRASQSISNWLAWYQQKPGKAPKVLIYKASSLESGVPSRFSGSGSGTEFTLTINSLQPDDFATYYCQQYDSYSITFGQGTRLEIKR
notes: fully human IgG1/kappa; also called antibody No. (7)
Consider B2, for which, in experiment [1], the midpoint of the response, the EC50, lay at 0.478 nM; the “Maximum (MFI)” value was 6730 MFI; the Top % was 104%. Further, in experiment [2], the Kd was less than 0.001 nM, the Response was determined as 0.338, the “fold lower KD than the reference antibody Tab (hRS7)” value is approximately 10 fold and the koff was less than 1e-07 s⁻¹. In experiment [2], this molecule returned a kon of 148000 M⁻¹ s⁻¹. In experiment [3], the Kd came out at 0.409 nM, the Response was 0.329, the koff was found to be 3.98e-05 s⁻¹ and the kon was found to be 97400 M⁻¹ s⁻¹.

B3: PR001171 (antibody, human IgG1, kappa, V domains shown)
VH: QVQLVESGGGVVQPGRSLRLSCAASGFTFSHYGMHWVRQAPGKGLEWVAVIWYDGIKKNYVESVKGRFTISRDNSKNTLNLQMNRLRAEDTAVYYCARDGGFGESNYYGLDVWGQGTTVTVSS
VL: DIQLTQSPSFLSASVGDRVTITCRASQGISSYLGWYQQKPGKAPKLLIYIASTLQSGVPSRFSGSGSGTEFTLTISSLQPEDFATYYCQQLNSYPYTFGQGTKLEIKR
notes: fully human IgG1/kappa; also called antibody No. (30)
Take B3: the “KD (monkey)/KD (human)” value in experiment [4] turned out to be 6.02. For the same molecule, in experiment [1], the response was half-maximal at 0.997 nM (EC50), the “Maximum (MFI)” value came to 6600 MFI and the Top % stood at 102%. Further, in experiment [2], the Kd turned out to be 0.0251 nM, the Response worked out at 0.326, the koff turned out to be 3.74e-06 s⁻¹ and the on-rate constant (kon) worked out at 149000 M⁻¹ s⁻¹. In experiment [3], this molecule registered a Kd of 0.151 nM, a Response of 0.319, a koff of 1.34e-05 s⁻¹ and a kon of 88300 M⁻¹ s⁻¹.

B4: PR001150 (antibody, human IgG1, kappa, V domains shown)
VH: B3 VH with G15E, R16K, A40V, K58R, N59Y, N80Y
VL: B3 VL with S30N, Q38R
notes: fully human IgG1/kappa; also called antibody No. (13)
For B4, in experiment [4], the “KD (monkey)/KD (human)” value was 9.76. In experiment [1], the EC50 is 0.589 nM, the “Maximum (MFI)” value came out at 6570 MFI and the Top % came out at 101%. In experiment [2], binding was characterised by a dissociation constant (Kd) of 0.0326 nM, the Response was determined as 0.382, the “fold lower KD than the reference antibody Tab (hRS7)” value was approximately 10 fold and the koff was 5.25e-06 s⁻¹. Also, in experiment [2], the kon is 161000 M⁻¹ s⁻¹. In addition, in experiment [3], binding was put at a Kd of 0.319 nM, the Response worked out at 0.344, the koff came out at 3.41e-05 s⁻¹ and the on-rate constant (kon) was found to be 107000 M⁻¹ s⁻¹.

B5: PR001152 (antibody, human IgG1, kappa, V domains shown)
VH: B3 VH with G10A, K58S, N59Y, N80Y, N84D
VL: B3 VL with S30N, Q38R
notes: fully human IgG1/kappa; also called antibody No. (15)
On to B5, for which the “KD (monkey)/KD (human)” value in experiment [4] was found to be 7.57. Also, in experiment [1], a half-maximal effect (EC50) was put at 1.93 nM, the “Maximum (MFI)” value is 7180 MFI and the Top % came to 111%. In experiment [2], the Kd was found to be 0.135 nM, the Response worked out at 0.348, the koff was 2.08e-05 s⁻¹ and the kon turned out to be 154000 M⁻¹ s⁻¹. Besides, in experiment [3], the affinity, expressed as Kd, was 1.02 nM; the Response was determined as 0.343; the koff was determined as 0.000105 s⁻¹; the kon stood at 103000 M⁻¹ s⁻¹.

B6: PR001154 (antibody, human IgG1, kappa, V domains shown)
VH: B3 VH with A23E, N59Y, V61I, T69I, N80Y, S105L
VL: B3 VL with I50V
notes: fully human IgG1/kappa; also called antibody No. (17)
B6: in experiment [4], the “KD (monkey)/KD (human)” value was determined as 2.24. Moreover, in experiment [1], the EC50 is 2.11 nM, the “Maximum (MFI)” value worked out at 7470 MFI and the Top % was 115%. In experiment [2], this molecule gave a dissociation constant Kd of 0.855 nM, a Response of 0.41, a koff of 9.23e-05 s⁻¹ and a kon of 108000 M⁻¹ s⁻¹. Also, in experiment [3], binding was put at a Kd of 1.91 nM, the Response worked out at 0.379, the koff is 0.000139 s⁻¹ and the on-rate (kon) was found to be 72700 M⁻¹ s⁻¹.

B7: PR001151 (antibody, human IgG1, kappa, V domains shown)
VH: B3 VH with N59D, N80Y, S105L
VL: B3 VL with I50V
notes: fully human IgG1/kappa; also called antibody No. (14)
With B7, the “KD (monkey)/KD (human)” value in experiment [4] worked out at 2.12. Besides, in experiment [1], it took 1.61 nM to reach a half-maximal effect (EC50), the “Maximum (MFI)” value came out at 7510 MFI and the Top % turned out to be 116%. In addition, in experiment [2], binding was put at a Kd of 1.12 nM, the Response amounted to 0.407, the koff was determined as 0.000127 s⁻¹ and the kon was 113000 M⁻¹ s⁻¹. In experiment [3], this molecule returned a Kd of 2.38 nM, a Response of 0.351, a koff of 0.00018 s⁻¹ and an association rate constant (kon) of 75800 M⁻¹ s⁻¹.

B8: PR001159 (antibody, human IgG1, kappa, V domains shown)
VH: B3 VH with A23E, K58T
VL: B3 VL
notes: fully human IgG1/kappa; also called antibody No. (21)
For the molecule B8, in experiment [1], the EC50 stood at 0.977 nM, the “Maximum (MFI)” value was determined as 6790 MFI and the Top % amounted to 105%. In addition, in experiment [2], the Kd was less than 0.001 nM, the Response was determined as 0.38, the “fold lower KD than the reference antibody Tab (hRS7)” value was approximately 10 fold and the koff is less than 1e-07 s⁻¹. This molecule showed a kon in experiment [2] of 176000 M⁻¹ s⁻¹. Besides, in experiment [3], the affinity, expressed as Kd, was 0.307 nM; the Response worked out at 0.372; the koff is 3.39e-05 s⁻¹; the kon is 111000 M⁻¹ s⁻¹.

B9: PR001170 (antibody, human IgG1, kappa, V domains shown)
VH: QVQLQESGPGLVKPSETLSLTCAVSGYSINSGYFWAWIRQPPGMGLEWIGSIYHSGRTHYNPSLKSRVIISLDTSKNQFSLKLRSVTAADSAVYYCAREGYASGSYYWGQGTLVTVSS
VL: EIVMTQSPATLSVSPGERATLSCRSSQSVNSYLAWFQQKPGQAPRLLIYDSSTRATGIPARFSGSGSGTEFTLTISSLQSEDFAFYFCQQYENWPLTFGGGTKVEIKR
notes: fully human IgG1/kappa; also called antibody No. (29)
With B9, in experiment [1], a half-maximal response (EC50) required 0.352 nM, the “Maximum (MFI)” value stood at 6960 MFI and the Top % came to 107%. In experiment [2], this molecule showed a Kd of less than 0.001 nM, a Response of 0.368, a koff of less than 1e-07 s⁻¹ and an on-rate (kon) of 476000 M⁻¹ s⁻¹. In experiment [3], the Kd was less than 0.001 nM, the Response was 0.387, the koff is less than 1e-07 s⁻¹ and the kon worked out at 307000 M⁻¹ s⁻¹.
